Literature values as cited in PMC10680782.

Target: VE-cadherin (Homo sapiens) (UniProt P33151)
Sequence of UniProt P33151 (P33151 48-599): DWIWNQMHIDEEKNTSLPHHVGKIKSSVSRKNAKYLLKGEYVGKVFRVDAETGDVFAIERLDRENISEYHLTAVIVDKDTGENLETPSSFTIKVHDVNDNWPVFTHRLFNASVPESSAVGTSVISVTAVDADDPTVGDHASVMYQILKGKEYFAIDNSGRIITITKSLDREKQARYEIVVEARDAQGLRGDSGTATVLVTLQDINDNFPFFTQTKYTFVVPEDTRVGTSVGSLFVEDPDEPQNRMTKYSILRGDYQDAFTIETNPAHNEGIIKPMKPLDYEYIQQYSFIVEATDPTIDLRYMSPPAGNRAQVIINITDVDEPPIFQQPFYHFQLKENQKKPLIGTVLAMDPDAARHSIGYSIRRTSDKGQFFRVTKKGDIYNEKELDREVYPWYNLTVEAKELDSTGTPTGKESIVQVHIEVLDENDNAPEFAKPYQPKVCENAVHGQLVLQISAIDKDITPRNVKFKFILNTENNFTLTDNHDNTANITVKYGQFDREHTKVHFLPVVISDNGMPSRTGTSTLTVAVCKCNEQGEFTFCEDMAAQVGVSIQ

Kd: 267 µM
Substance: fibrin β15-42 fragment 15-42 (from UniProt P02675)
